Reference: paper PMC13334617

Biological target: wild-type AC fused to GFP (AC-GFP), encoded by plasmid pAC0-Gfp (Bordetella pertussis | not stated) (UniProt P0DKX7)
Experiment: two-hybrid

“calmodulin (CaM) with a 6-histidine tag at its N-terminus and a tetra-cysteine tag at its C-terminus, encoded by plasmid pTCam (from UniProt P0DP23 1-149) (natural protein)” was tested, and the cAMP was > 250 nmol/mg and the ß gal (Rel. Units) was 106 Rel. Units.
